# T1: Chimeric protein #1 (mPro-hCat-mC-term-mmh) (mouse; human, UniProt Q80W65 35-694)
# T1 chain: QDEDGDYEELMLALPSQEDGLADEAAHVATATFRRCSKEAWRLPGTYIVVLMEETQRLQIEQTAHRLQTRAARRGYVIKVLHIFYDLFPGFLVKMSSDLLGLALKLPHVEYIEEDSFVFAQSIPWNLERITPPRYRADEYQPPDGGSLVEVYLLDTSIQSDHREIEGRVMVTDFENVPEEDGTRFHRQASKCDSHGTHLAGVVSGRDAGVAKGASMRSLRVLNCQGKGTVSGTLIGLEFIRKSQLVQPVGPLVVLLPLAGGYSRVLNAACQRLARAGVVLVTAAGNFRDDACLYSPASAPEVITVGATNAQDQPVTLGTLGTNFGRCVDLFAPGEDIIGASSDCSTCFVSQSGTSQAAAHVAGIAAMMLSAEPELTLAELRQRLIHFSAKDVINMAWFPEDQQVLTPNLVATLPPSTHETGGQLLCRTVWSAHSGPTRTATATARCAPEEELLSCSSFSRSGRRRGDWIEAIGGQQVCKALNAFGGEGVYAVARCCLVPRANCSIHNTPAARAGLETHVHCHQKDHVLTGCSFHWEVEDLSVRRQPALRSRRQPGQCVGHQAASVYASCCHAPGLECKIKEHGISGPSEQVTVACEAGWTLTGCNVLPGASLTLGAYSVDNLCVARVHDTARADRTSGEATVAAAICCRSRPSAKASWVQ
# Assays:
# hPCSK9(P70A) = hPCSK9(P70A) (human, UniProt Q8NBP7 31-692); assay: ELISA, mAb coated, variant 0-5 nM
# Protocol: (§1) Anti-PCSK9 mAbs were coated on a 96-well plate overnight at 4° C.
# hPCSK9(P70A, S147F) = hPCSK9(P70A, S147F) (human, UniProt Q8NBP7 31-692); assay: ELISA, mAb coated, variant 0-5 nM
# Protocol: as §1
# Human PCSK9-myc-myc-his [1] = molecular target: T2, Human PCSK9-myc-myc-his (human, UniProt Q8NBP7 31-692); assay: ELISA, mAb coated, variant 0-5 nM
# T2 construct: also called hPCSK9-mmh; hPCSK9
# Protocol: as §1
# hPCSK9(S127R) = molecular target: T3, hPCSK9(S127R) (human, UniProt Q8NBP7 31-692); assay: ELISA, mAb coated, variant 0-5 nM
# T3 construct: mmh-tagged variant hPCSK9
# Protocol: as §1
# hPCSK9(D129G) = molecular target: T4, hPCSK9(D129G) (human, UniProt Q8NBP7 31-692); assay: ELISA, mAb coated, variant 0-5 nM
# T4 construct: mmh-tagged variant hPCSK9
# Protocol: as §1
# hPCSK9(S147F) = molecular target: T5, hPCSK9(S147F) (human, UniProt Q8NBP7 31-692); assay: ELISA, mAb coated, variant 0-5 nM
# T5 construct: mmh-tagged variant hPCSK9
# Protocol: as §1
# hPCSK9(S153R) = molecular target: T6, hPCSK9(S153R) (human, UniProt Q8NBP7 31-692); assay: ELISA, mAb coated, variant 0-5 nM
# T6 construct: mmh-tagged variant hPCSK9
# Protocol: as §1
# hPCSK9(E159R) = molecular target: T7, hPCSK9(E159R) (human, UniProt Q8NBP7 31-692); assay: ELISA, mAb coated, variant 0-5 nM
# T7 construct: mmh-tagged variant hPCSK9
# Protocol: as §1
# hPCSK9(T162R) = molecular target: T8, hPCSK9(T162R) (human, UniProt Q8NBP7 31-692); assay: ELISA, mAb coated, variant 0-5 nM
# T8 construct: mmh-tagged variant hPCSK9
# Protocol: as §1
# hPCSK9(D192R) = molecular target: T9, hPCSK9(D192R) (human, UniProt Q8NBP7 31-692); assay: ELISA, mAb coated, variant 0-5 nM
# T9 construct: mmh-tagged variant hPCSK9
# Protocol: as §1
# hPCSK9(R194E) = molecular target: T10, hPCSK9(R194E) (human, UniProt Q8NBP7 31-692); assay: ELISA, mAb coated, variant 0-5 nM
# T10 construct: mmh-tagged variant hPCSK9
# Protocol: as §1
# hPCSK9(E197R) = molecular target: T11, hPCSK9(E197R) (human, UniProt Q8NBP7 31-692); assay: ELISA, mAb coated, variant 0-5 nM
# T11 construct: mmh-tagged variant hPCSK9
# Protocol: as §1
# hPCSK9(R215H) = molecular target: T12, hPCSK9(R215H) (human, UniProt Q8NBP7 31-692); assay: ELISA, mAb coated, variant 0-5 nM
# T12 construct: mmh-tagged variant hPCSK9
# Protocol: as §1
# hPCSK9(R215E) = molecular target: T13, hPCSK9(R215E) (human, UniProt Q8NBP7 31-692); assay: ELISA, mAb coated, variant 0-5 nM
# T13 construct: mmh-tagged variant hPCSK9
# Protocol: as §1
# hPCSK9(F216L) = molecular target: T14, hPCSK9(F216L) (human, UniProt Q8NBP7 31-692); assay: ELISA, mAb coated, variant 0-5 nM
# T14 construct: mmh-tagged variant hPCSK9
# Protocol: as §1
# hPCSK9(R237E) = molecular target: T15, hPCSK9(R237E) (human, UniProt Q8NBP7 31-692); assay: ELISA, mAb coated, variant 0-5 nM
# T15 construct: mmh-tagged variant hPCSK9
# Protocol: as §1
# hPCSK9(D238R) = molecular target: T16, hPCSK9(D238R) (human, UniProt Q8NBP7 31-692); assay: ELISA, mAb coated, variant 0-5 nM
# T16 construct: mmh-tagged variant hPCSK9
# Protocol: as §1
# hPCSK9(A341R) = molecular target: T17, hPCSK9(A341R) (human, UniProt Q8NBP7 31-692); assay: ELISA, mAb coated, variant 0-5 nM
# T17 construct: mmh-tagged variant hPCSK9
# Protocol: as §1
# hPCSK9(D343R) = molecular target: T18, hPCSK9(D343R) (human, UniProt Q8NBP7 31-692); assay: ELISA, mAb coated, variant 0-5 nM
# T18 construct: mmh-tagged variant hPCSK9
# Protocol: as §1
# hPCSK9(R357H) = molecular target: T19, hPCSK9(R357H) (human, UniProt Q8NBP7 31-692); assay: ELISA, mAb coated, variant 0-5 nM
# T19 construct: mmh-tagged variant hPCSK9
# Protocol: as §1
# hPCSK9(E366K) = molecular target: T20, hPCSK9(E366K) (human, UniProt Q8NBP7 31-692); assay: ELISA, mAb coated, variant 0-5 nM
# T20 construct: mmh-tagged variant hPCSK9
# Protocol: as §1
# hPCSK9(V380M) = molecular target: T21, hPCSK9(V380M) (human, UniProt Q8NBP7 31-692); assay: ELISA, mAb coated, variant 0-5 nM
# T21 construct: mmh-tagged variant hPCSK9
# Protocol: as §1
# hPCSK9(E366K, V380M) = molecular target: T22, hPCSK9(E366K, V380M) (human, UniProt Q8NBP7 31-692); assay: ELISA, mAb coated, variant 0-5 nM
# T22 construct: mmh-tagged variant hPCSK9
# Protocol: as §1
# [2] = molecular target: T23, tagged rhesus monkey (Macaca mulata) PCSK9 (rhesus monkey (Macaca mulata), UniProt A8T666 31-692); assay: competition ELISA vs hLDLR-ecto, pH 7.2
# T23 construct: also called mmPCSK9-mmh; mmPCSK9
# T23 sequence (A8T666 31-692 limits assumed): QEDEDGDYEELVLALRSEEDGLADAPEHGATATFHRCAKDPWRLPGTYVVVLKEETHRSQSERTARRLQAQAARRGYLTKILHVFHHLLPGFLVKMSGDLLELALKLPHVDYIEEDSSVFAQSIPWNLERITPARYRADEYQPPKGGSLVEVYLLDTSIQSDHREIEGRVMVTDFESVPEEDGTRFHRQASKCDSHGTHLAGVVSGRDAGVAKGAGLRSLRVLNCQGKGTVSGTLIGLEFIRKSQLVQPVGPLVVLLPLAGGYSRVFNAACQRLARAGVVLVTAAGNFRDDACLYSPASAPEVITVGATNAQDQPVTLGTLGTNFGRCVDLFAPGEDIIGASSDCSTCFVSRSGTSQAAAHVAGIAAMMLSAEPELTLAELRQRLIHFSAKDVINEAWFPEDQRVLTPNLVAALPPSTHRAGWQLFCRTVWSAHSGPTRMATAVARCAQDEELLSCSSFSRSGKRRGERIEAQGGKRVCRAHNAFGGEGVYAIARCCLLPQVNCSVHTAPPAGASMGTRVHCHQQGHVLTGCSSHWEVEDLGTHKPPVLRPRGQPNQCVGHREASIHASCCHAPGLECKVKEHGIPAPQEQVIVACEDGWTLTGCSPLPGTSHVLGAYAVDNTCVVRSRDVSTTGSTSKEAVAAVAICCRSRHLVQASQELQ
# Protocol: Briefly, hLDLR-ecto, hLDLR EGF-A-hFc or hLDLR EGF-AB-hFc, each at 2 μg/ml, was coated on a 96-well plate in PBS buffer overnight at 4° C., and nonspecific binding sites blocked with BSA. […] The equilibrated sample solutions were transferred to receptor or receptor fragment coated plates.
# [3] = molecular target: T1, Chimeric protein #1 …; assay: SPR, mAb captured on anti-hFc, 100 nM antigen
# Protocol: Changes in RU due to the binding of each protein to the mAb surface was determined.
# Human PCSK9-myc-myc-his [4] = molecular target: T2, Human PCSK9-myc-myc-his; assay: SPR, antigen captured at low density, pH 5.5, 25C
Binder,OD (hPCSK9(P70A)) [od],"OD (hPCSK9(P70A, S147F)) [od]",OD (Human PCSK9-myc-myc-his [1]) [od],OD (hPCSK9(S127R)) [od],OD (hPCSK9(D129G)) [od],OD (hPCSK9(S147F)) [od],OD (hPCSK9(S153R)) [od],OD (hPCSK9(E159R)) [od],OD (hPCSK9(T162R)) [od],OD (hPCSK9(D192R)) [od],OD (hPCSK9(R194E)) [od],OD (hPCSK9(E197R)) [od],OD (hPCSK9(R215H)) [od],OD (hPCSK9(R215E)) [od],OD (hPCSK9(F216L)) [od],OD (hPCSK9(R237E)) [od],OD (hPCSK9(D238R)) [od],OD (hPCSK9(A341R)) [od],OD (hPCSK9(D343R)) [od],OD (hPCSK9(R357H)) [od],other results
"H1H316P (antibody, V domains shown, Fully human mAb made in CHO cells; also called mAb316P) VH: EVQLVESGGGLVQPGGSLRLSCAASGFTFNNYAMNWVRQAPGKGLDWVSTISGSGGTTNYADSVKGRFIISRDSSKHTLYLQMNSLRAEDTAVYYCAKDSNWGNFDLWGRGTLVTVSS VL: not shown",> 1.5,> 1.5,> 1.5,> 1.5,> 1.5,> 1.5,> 1.5,> 1.5,> 1.5,> 1.5,> 1.5,> 1.5,> 1.5,> 1.5,> 1.5,> 1.5,< 0.7,> 1.5,> 1.5,> 1.5,"OD (hPCSK9(E366K)): > 1.5 od; OD (hPCSK9(V380M)): > 1.5 od; OD (hPCSK9(E366K, V380M)): > 1.5 od; IC50 [2]: < 250 pM; change in RU [3]: 529 RU; Kd (Human PCSK9-myc-myc-his [4]): 188 pM; T1/2 (Human PCSK9-myc-myc-his [4]): 58 min"
"H1M300N (antibody, V domains shown, Fully human version made in CHO cells) VH: EMQLVESGGGLVQPGGSLRLSCAASGFTFSSHWMKWVRQAPGKGLEWVANINQDGSEKYYVDSVKGRFTISRDNAKNSLFLQMNSLRAEDTAVYYCARDIVLMVYDMDYYYYGMDVWGQGTTVTVSS VL: not shown",> 1.5,> 1.5,> 1.5,> 1.5,> 1.5,> 1.5,> 1.5,> 1.5,> 1.5,> 1.5,> 1.5,> 1.5,> 1.5,> 1.5,> 1.5,> 1.5,> 1.5,> 1.5,> 1.5,> 1.5,"OD (hPCSK9(E366K)): 0.7 to 1.5 od; OD (hPCSK9(V380M)): > 1.5 od; OD (hPCSK9(E366K, V380M)): 0.7 to 1.5 od; IC50 [2]: 255 pM; change in RU [3]: 243 RU; Kd (Human PCSK9-myc-myc-his [4]): 1380 pM; T1/2 (Human PCSK9-myc-myc-his [4]): 13 min"

# Reference: US20130064834A1 (published 2013)
